Reference: the supplement of paper PMC9732359
± gives the uncertainty stated by the source.

Experiment: protein stability index of a GFP-peptide fusion (yeast GPS) (PSI 1-4); higher = more stable; sorted into four equal gates, so the index is relative within each strain
Method in brief: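 Plasmids in a pooled yeast library fused tiled 17-residue yeast protein peptides downstream of GFP and also expressed Cherry. Mid-log cultures grown without leucine were sorted into four equal gates by GFP/Cherry fluorescence ratio. Each gate's plasmids were PCR-amplified and Illumina-sequenced, and reads were matched to strains by barcodes. The protein stability index is derived by multiplying each gate's read frequency by its gate number and summing the results.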

| Sequence | protein stability index (doa10∆) | protein stability index (pdr5∆) | protein stability index (san1∆) | protein stability index (ubr1∆) |
| --- | --- | --- | --- | --- |
| SMNNDFQQQQQQQQQQQ [PGD1] | 2.43 ± 0.1 | 2.9 ± 0.16 | 2.54 ± 0.11 | 2.29 ± 0.14 |
| AMDLAQMLIQGVWDVDN [BRR2] | 2.85 ± 0.064 | 2.78 ± 0.067 | 2.18 ± 0.058 | 2.12 ± 0.052 |
| DSVLLNRGNKKRHRSSY [YML031W/NDC1] | 3.03 ± 0.099 | 3.25 ± 0.1 | 3.04 ± 0.06 | 3.15 ± 0.076 |
| SGLMVILYTSKIVFILD [RRI2] | 1.76 ± 0.09 | 1.81 ± 0.049 | 1.44 ± 0.094 | 1.69 ± 0.037 |
| STTASGTTATGTGLFGQ [YGR119C/NUP57] | 3.18 ± 0.074 | 3.35 ± 0.067 | 3.27 ± 0.068 | 3.43 ± 0.055 |
| KICRGRMNTIITHPGKM [SIR4] | 3.36 ± 0.28 |  | 3.23 ± 0.16 |  |
| QKSINHPPDFKRMLLSL [SNF2] | 1.66 ± 0.04 | 1.42 ± 0.039 | 1.71 ± 0.062 | 1.38 ± 0.022 |
| TNVNPSKNFNVILASSL [YML103C/NUP188] | 1.82 ± 0.05 | 2.16 ± 0.048 | 1.99 ± 0.08 | 1.91 ± 0.045 |
| VLETHESGIKPYFEQKI [RPT6] | 2.33 ± 0.21 | 2.29 ± 0.28 | 2.58 ± 0.065 |  |
| KAYVRLTADYDALDIAN [RPL25] | 2.94 ± 0.14 | 3.04 ± 0.15 | 3.17 ± 0.094 | 3.52 ± 0.091 |
| IRRAYLHYIPKYNRYEK [RPS11A] | 2.04 ± 0.07 | 1.72 ± 0.064 | 1.81 ± 0.1 | 1.85 ± 0.044 |
| PFMSYSPQLTAIIGLKS [SNF12] | 1.67 ± 0.055 | 2.16 ± 0.062 | 2.3 ± 0.078 | 1.98 ± 0.053 |
| DAMIAQRSKKIQPTAKV [DIS3] | 1.83 ± 0.082 | 1.99 ± 0.084 | 1.59 ± 0.067 | 1.69 ± 0.068 |
| SSEIDRENVKSKDEPVS [SIR4] | 3.13 ± 0.15 | 3.33 ± 0.12 | 2.92 ± 0.082 | 3.27 ± 0.086 |
| VDKSRKVAHTSYKRIYG [PRE8] | 3.31 ± 0.11 | 3.13 ± 0.13 | 3.28 ± 0.17 | 3.13 ± 0.093 |
| QSLANIQYVTYLLTQQQ [SOH1] | 2.23 ± 0.048 | 2.4 ± 0.045 | 2.19 ± 0.047 | 2.41 ± 0.033 |
| SRTGPVFDLCWNSLMYA [RRP43] | 2.64 ± 0.06 | 2.45 ± 0.048 | 2.6 ± 0.048 | 2.41 ± 0.032 |
| NEYVIKTPVFTTGGDYI [YMR129W/POM152] | 1.88 ± 0.062 | 2.07 ± 0.053 | 1.91 ± 0.075 | 1.99 ± 0.053 |
| QLLGDVMTYKGEVLGIT [RPO31] | 3.28 ± 0.11 | 3.43 ± 0.069 | 3.24 ± 0.14 | 3.33 ± 0.075 |
| FLKDADVECIKAKSHFT [YJL039C/NUP192] | 3.11 ± 0.13 | 3.2 ± 0.14 | 2.91 ± 0.089 | 2.98 ± 0.059 |
| KEEQPKQIIVTRKAMLD [PRP8] | 2.62 ± 0.078 | 3.09 ± 0.082 | 2.71 ± 0.068 | 2.61 ± 0.049 |
| YVKSLHKQISAEDLTIA [SIN4] | 2.82 ± 0.14 | 3.19 ± 0.11 | 2.8 ± 0.2 | 2.77 ± 0.085 |
| DKKVLVKVQPEGKYIVD [RPT6] | 3.23 ± 0.081 | 3.28 ± 0.088 | 3.23 ± 0.036 | 2.96 ± 0.062 |
| KLRKIAISKKNKSLKYV [LIN1] | 1.65 ± 0.062 | 1.33 ± 0.059 | 1.23 ± 0.14 | 1.15 ± 0.048 |
| MSKVMKPSNGKGSRKSS [SNF12] | 2.92 ± 0.091 | 3.27 ± 0.11 | 3.02 ± 0.11 | 3.232 ± 0.029 |
| EDIIANYASVYPVVEVE [RRP43] | 2.47 ± 0.098 | 2.77 ± 0.092 | 2.85 ± 0.14 | 2.72 ± 0.079 |
| LIAHQRSAWNNNNDNDA [GRR1] | 2.25 ± 0.049 | 2.65 ± 0.039 | 2.62 ± 0.05 | 2.65 ± 0.039 |

| Sequence | protein stability index (doa10∆) | protein stability index (pdr5∆) | protein stability index (san1∆) | protein stability index (ubr1∆) |
| --- | --- | --- | --- | --- |
| GCVDIDDALHAKKLPNG [DIS3] | 3.26 ± 0.059 | 3.23 ± 0.051 | 3.14 ± 0.04 | 3.14 ± 0.037 |
| KLWRKIARLYSCISISD [RRI2] | 2.87 ± 0.11 | 2.1 ± 0.075 | 2.69 ± 0.064 | 1.61 ± 0.038 |
| QLLQRIPNIPPNINTWQ [GAL11] | 2.55 ± 0.048 | 2.72 ± 0.049 | 1.96 ± 0.059 | 2.62 ± 0.044 |
| EIFAFGNIKDLPENIIL [CSN9] | 2.7 ± 0.066 | 2.92 ± 0.056 | 2.8 ± 0.043 | 2.93 ± 0.042 |
| TSNKEGFNSIWKIPQND [SSN2] | 3.29 ± 0.26 | 3.72 ± 0.3 | 3.45 ± 0.15 |  |
| PVKQSFIRKYINQKALR [GAL11] | 1.61 ± 0.12 | 1.59 ± 0.07 | 1.61 ± 0.099 | 1.77 ± 0.08 |
| SKKYQLADWRIRPLSKP [RRP6] | 1.68 ± 0.048 | 1.83 ± 0.048 | 1.3 ± 0.088 | 1.99 ± 0.049 |
| IDMESDVEDDDKETQLK [POP7] | 1.67 ± 0.054 | 1.92 ± 0.048 | 1.62 ± 0.088 | 1.98 ± 0.031 |
| RVNKNAPAVELHGNAKK [FAS2] | 2.74 ± 0.071 | 3.14 ± 0.07 | 3.2 ± 0.18 | 2.93 ± 0.058 |
| FQELDSKKQRNNGSKDH [RPN9] | 3.09 ± 0.17 | 2.64 ± 0.19 | 2.67 ± 0.15 | 2.37 ± 0.16 |
| HYKVPTDTSTTATAATN [MED6] | 2.28 ± 0.054 | 2.62 ± 0.053 | 2.29 ± 0.067 | 2.61 ± 0.044 |
| AQNQGGQVSMSQFNGSG [PGD1] | 3.42 ± 0.12 | 3.29 ± 0.12 | 2.93 ± 0.081 | 3.23 ± 0.076 |
| GSSDEDLKSLNVRDDMK [SSN2] | 3.29 ± 0.13 | 3.58 ± 0.11 | 3.38 ± 0.078 | 3.2 ± 0.11 |
| GRGLWNPSYPGMMSTTG [YJL039C/NUP192] | 2.99 ± 0.092 | 3.12 ± 0.053 | 3.14 ± 0.074 | 3.1 ± 0.097 |
| IQHIAAAMVPFIKFKLI [CDC53] | 2.42 ± 0.048 | 2.42 ± 0.043 | 2.42 ± 0.056 | 2.43 ± 0.048 |
| LKRRQVIEQCYLKFIPL [SRB8] | 1.91 ± 0.045 | 1.98 ± 0.048 | 1.52 ± 0.082 | 1.83 ± 0.032 |
| LIDSLENHLLVMKQVET [PRP28] | 2.49 ± 0.11 | 2.19 ± 0.073 | 1.69 ± 0.19 | 2.06 ± 0.063 |
| DFIQLKQTAAYRTPGSS [SSN2] | 2.88 ± 0.064 | 2.98 ± 0.071 | 2.79 ± 0.083 | 2.92 ± 0.044 |
| GPKSGSTMGTPTVHNST [PGD1] | 3.05 ± 0.078 | 3.04 ± 0.055 | 3.01 ± 0.061 | 3.12 ± 0.06 |
| VKRIQSVPLVIGQFLEP [RPT3] | 1.58 ± 0.064 | 1.6 ± 0.063 | 2.38 ± 0.11 | 3 ± 0.094 |
| AALANANNNINSASSAP [SWI1] | 2.55 ± 0.088 | 1.91 ± 0.068 | 2.88 ± 0.13 | 2.55 ± 0.12 |
| SRKRNEEEDAKNPLFSY [RPL31A] | 2.48 ± 0.078 | 2.91 ± 0.059 | 2.58 ± 0.074 | 2.12 ± 0.043 |
| KRELKQLLEKAPIPIRE [BRR2] | 1.94 ± 0.05 | 2.22 ± 0.053 | 1.99 ± 0.13 | 1.91 ± 0.061 |
| QKSTELLIRKLPFQRLV [HHT1] | 1.26 ± 0.14 | 1.12 ± 0.17 | 1.17 ± 0.21 | 1.3 ± 0.16 |
| DDDVTPSTKVASSAVMN [YLR335W/NUP2] | 3.5 ± 0.14 | 3.19 ± 0.083 | 3.3 ± 0.065 | 3.26 ± 0.062 |
| QLDKKNELQKFQALWQL [SMC1] |  |  | 2.58 ± 0.1 |  |
| DPDNTSFSDENSDDFFM [ESC2] | 2.31 ± 0.13 | 2.39 ± 0.11 | 2.54 ± 0.09 | 1.5 ± 0.088 |
